Assay results from publication PMC7949057 (2021).

What was measured:
[1] = biological target: T1, Recombinant hamster GRP78 protein (hamster, UniProt G3I8R9 19-654, RED-tris-NTA dye held on the His-tag); assay: MST; 1 uM CaCl2
[2] = biological target: T1, Recombinant hamster GRP78 protein; assay: MST; 100 uM CaCl2
[3] = biological target: T1, Recombinant hamster GRP78 protein; assay: MST; 200 uM CaCl2
[4] = biological target: T1, Recombinant hamster GRP78 protein; assay: MST
[5] = biological target: Substrate-binding domain (SBD) of GRP78 (RED-tris-NTA dye held on the His-tag); assay: MST
Sequence of Substrate-binding domain (SBD) of GRP78 (RED-tris-NTA dye held on the His-tag) (chain, as listed by the source): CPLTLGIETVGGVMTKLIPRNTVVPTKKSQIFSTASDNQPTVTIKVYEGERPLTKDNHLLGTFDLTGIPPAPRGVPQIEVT

T1 sequence (G3I8R9 19-654): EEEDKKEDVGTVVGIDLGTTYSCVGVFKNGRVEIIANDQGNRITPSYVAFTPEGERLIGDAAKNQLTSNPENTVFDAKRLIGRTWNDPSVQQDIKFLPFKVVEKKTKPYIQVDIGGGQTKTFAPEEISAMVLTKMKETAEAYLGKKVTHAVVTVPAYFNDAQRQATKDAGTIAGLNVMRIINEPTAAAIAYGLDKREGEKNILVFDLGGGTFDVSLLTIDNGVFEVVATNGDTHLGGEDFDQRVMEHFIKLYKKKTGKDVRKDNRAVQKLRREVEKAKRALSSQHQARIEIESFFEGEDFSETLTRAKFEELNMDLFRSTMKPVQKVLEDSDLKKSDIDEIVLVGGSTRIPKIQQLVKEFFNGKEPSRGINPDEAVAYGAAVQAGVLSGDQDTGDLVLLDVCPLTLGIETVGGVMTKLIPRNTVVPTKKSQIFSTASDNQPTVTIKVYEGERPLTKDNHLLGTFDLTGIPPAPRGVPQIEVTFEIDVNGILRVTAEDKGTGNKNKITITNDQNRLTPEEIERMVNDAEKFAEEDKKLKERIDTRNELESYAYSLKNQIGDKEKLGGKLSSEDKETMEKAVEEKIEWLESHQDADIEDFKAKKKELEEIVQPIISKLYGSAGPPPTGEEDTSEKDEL

Row | Kd [1] [nM] | Kd [2] [nM] | Kd [3] [nM] | Kd [4] [nM] | Kd [5] [nM] | Binder
1 | 570 | 500 | 430 | 216 | 1400 | Recombinant human MANF protein (natural protein) LRPGDCEVCISYLGRFYQDLKDRDVTFSPATIENELIKFCREARGKENRLCYYIGATDDAATKIINEVSKPLAHHIPVEKICEKLKKKDSQICELKYDKQIDLSTVDLKKLRVKELKKILDDWGETCKGCAEKSDYIRKINELMPKYAPKAASARTDL
2 |  |  |  | 269 |  | Recombinant MANF E153A mutant protein (natural protein) LRPGDCEVCISYLGRFYQDLKDRDVTFSPATIENELIKFCREARGKENRLCYYIGATDDAATKIINEVSKPLAHHIPVEKICEKLKKKDSQICELKYDKQIDLSTVDLKKLRVKELKKILDDWGETCKGCAAKSDYIRKINELMPKYAPKAASARTDL
